Laboratory results published in paper PMC8252264, “Candida albicans and Candida glabrata triosephosphate isomerase – a moonlighting protein that can be exposed on the candidal cell surface and bind to human extracellular matrix proteins” (BMC Microbiology, 2021).

What was measured:
[1] = target: Candida albicans triosephosphate isomerase (Tpi1) (Candida albicans (strain ATCC 10231)) (UniProt Q9P940); test: SPR; Biacore 3000, Tpi1 amine-coupled to a CM5 chip (ca. 150 RU), human ECM proteins 50-750 nM injected; 10 mM HEPES, 150 mM NaCl, 0.005 % P20, pH 7.4; 1:1 Langmuir model, global or local fit
[2] = target: Candida glabrata triosephosphate isomerase (Tpi1) (Candida glabrata (strain CBS138, ATCC 2001)) (UniProt Q6FRI3); test: as above
human vitronectin [3] = target: T1, human vitronectin (human, UniProt P04004 20-478, biotin (NHS-biotin) in the whole-cell assay only; sulfo-SDAD on amino groups in the cross-linking experiment); test: ELISA; microplate-based protein-binding assay: human ECM proteins coated (3 pmoles per well, MaxiSorp, overnight 4 °C), biotin-labelled Tpi1 10-800 nM in PBS, 1.5 h at 37 °C, SA-HRP/TMB detection; apparent KD; details: both partners purified
T1 construct: vitronectin, human; UniProt ID printed for the modelling only (there: vitronectin V65 subunit); No catalogue number printed; also called VTR; source: bought: R&D Systems
T1 sequence (P04004 20-478): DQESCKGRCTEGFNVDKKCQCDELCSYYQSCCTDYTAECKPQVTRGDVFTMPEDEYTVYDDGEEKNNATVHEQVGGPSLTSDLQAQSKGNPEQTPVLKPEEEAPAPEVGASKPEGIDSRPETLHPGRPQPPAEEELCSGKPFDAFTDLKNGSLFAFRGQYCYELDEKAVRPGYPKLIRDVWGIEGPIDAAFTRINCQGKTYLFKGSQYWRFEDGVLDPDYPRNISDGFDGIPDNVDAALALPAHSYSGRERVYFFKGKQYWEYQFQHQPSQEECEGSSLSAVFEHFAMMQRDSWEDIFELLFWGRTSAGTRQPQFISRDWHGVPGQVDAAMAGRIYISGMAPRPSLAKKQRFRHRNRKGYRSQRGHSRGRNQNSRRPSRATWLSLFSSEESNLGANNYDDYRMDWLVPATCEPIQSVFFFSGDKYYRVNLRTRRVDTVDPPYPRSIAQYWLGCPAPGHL

human elastin = target: T2, human elastin (human, UniProt P15502 27-786); test: SPR; Biacore 3000, Tpi1 amine-coupled to a CM5 chip (ca. 150 RU), human ECM proteins 50-750 nM injected; 10 mM HEPES, 150 mM NaCl, 0.005 % P20, pH 7.4; 1:1 Langmuir model, global or local fit; details: both partners purified
T2 construct: elastin, human; No catalogue number printed; a commercial soluble elastin may be a cross-linked or hydrolysed tissue preparation; source: bought: Sigma-Aldrich
T2 sequence (looked up): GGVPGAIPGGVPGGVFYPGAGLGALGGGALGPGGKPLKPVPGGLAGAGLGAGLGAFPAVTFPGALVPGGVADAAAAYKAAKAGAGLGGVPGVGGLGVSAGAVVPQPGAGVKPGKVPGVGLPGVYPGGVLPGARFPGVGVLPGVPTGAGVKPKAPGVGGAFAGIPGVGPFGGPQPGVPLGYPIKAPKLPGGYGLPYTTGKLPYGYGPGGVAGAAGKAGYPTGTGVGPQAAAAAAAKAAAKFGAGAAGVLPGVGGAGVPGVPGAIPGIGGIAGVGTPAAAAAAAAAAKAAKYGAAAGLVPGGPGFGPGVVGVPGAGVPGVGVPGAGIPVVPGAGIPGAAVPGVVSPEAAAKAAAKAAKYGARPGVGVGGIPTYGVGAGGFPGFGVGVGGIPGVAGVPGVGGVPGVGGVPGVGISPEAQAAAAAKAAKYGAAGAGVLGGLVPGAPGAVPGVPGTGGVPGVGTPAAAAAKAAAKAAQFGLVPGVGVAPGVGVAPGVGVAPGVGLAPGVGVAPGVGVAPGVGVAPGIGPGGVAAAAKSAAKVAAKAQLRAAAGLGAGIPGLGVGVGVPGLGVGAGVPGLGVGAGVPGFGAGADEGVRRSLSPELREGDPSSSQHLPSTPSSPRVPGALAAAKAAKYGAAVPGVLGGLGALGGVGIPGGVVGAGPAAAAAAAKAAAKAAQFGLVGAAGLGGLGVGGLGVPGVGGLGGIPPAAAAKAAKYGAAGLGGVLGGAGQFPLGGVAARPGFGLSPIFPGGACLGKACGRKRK

human vitronectin [4] = target: T1, human vitronectin; test: as above; details: both partners purified
human collagen (human) = test: ELISA; microplate-based protein-binding assay: human ECM proteins coated (3 pmoles per well, MaxiSorp, overnight 4 °C), biotin-labelled Tpi1 10-800 nM in PBS, 1.5 h at 37 °C, SA-HRP/TMB detection; apparent KD
[5] = target: human ECM proteins tested in the microplate-based protein-binding assay (Fig. 5); test: as above

Row | Molecule | Kd [1] | koff [1] | kon [1] | Kd [2] | koff [2] | kon [2] | Kd (human vitronectin [3]) | Kd (human elastin) | koff (human elastin) | kon (human elastin) | Kd (human vitronectin [4]) | koff (human vitronectin [4]) | kon (human vitronectin [4]) | Kd (human collagen (human)) | Kd [5]
1 | human collagen (natural protein) | 109 nM | 0.00199 s⁻¹ | 18200 M⁻¹ s⁻¹ | 214 nM | 0.00308 s⁻¹ | 14400 M⁻¹ s⁻¹ |  |  |  |  |  |  |  |  | 
2 | human fibronectin (from UniProt P02751 32-2477) (natural protein) | 326 nM | 0.0105 s⁻¹ | 32200 M⁻¹ s⁻¹ | 730 nM | 0.0473 s⁻¹ | 64800 M⁻¹ s⁻¹ |  |  |  |  |  |  |  |  | 
3 | human laminin (complex) | 739 nM | 0.0327 s⁻¹ | 44200 M⁻¹ s⁻¹ | 253 nM | 0.00339 s⁻¹ | 13400 M⁻¹ s⁻¹ |  |  |  |  |  |  |  |  | 
4 | Candida albicans triosephosphate isomerase (Tpi1) (enzyme, biotin (NHS-biotin) in the microplate assays; unlabelled in SPR, cross-linking and on cells, triosephosphate isomerase Tpi1 of Candida albicans, native protein isolated from the cell wall; the UniProt ID is printed for the molecular modelling; Native protein, enzymatically active, no attached sugars found; The strain used (ATCC 10231) may differ from the strain of the UniProt entry; Modelled as a dimer, oligomeric state not measured here; also called C. albicans Tpi1; source: also …) MARQFFVGGNFKANGTKQQITSIIDNLNKADLPKDVEVVICPPALYLGLAVEQNKQPTVAIGAQNVFDKSCGAFTGETCASQILDVGASWTLTGHSERRTIIKESDEFIAEKTKFALDTGVKVILCIGETLEERKGGVTLDVCARQLDAVSKIVSDWSNIVVAYEPVWAIGTGLAATPEDAEETHKGIRAHLAKSIGAEQAEKTRILYGGSVNGKNAKDFKDKANVDGFLVGGASLKPEFVDIIKSRL |  |  |  |  |  |  | ~10 nM | 821 nM | 0.0382 s⁻¹ | 46500 M⁻¹ s⁻¹ | 86 nM | 0.00877 s⁻¹ | 102000 M⁻¹ s⁻¹ |  | 
5 | Candida glabrata triosephosphate isomerase (Tpi1) (enzyme, biotin (NHS-biotin) in the microplate assay; unlabelled in SPR and on cells, triosephosphate isomerase Tpi1 of Candida glabrata, native protein isolated from the cell wall; identifier not given; Native protein, enzymatically active, no attached sugars found; also called C. glabrata Tpi1; source: also endogenous, on live C. glabrata cells) MARTFFVGGNFKLNGTKKSIKEIVDRLNTASLPENVEVVICPPATYLDYTVSLVSKKQVTVGGQNTYTKASGAYTGENSVDQLKDVGAKWVILGHSERRTYFHEDDKIVAEKTKFALDQGLGVILCIGETLEEKKAGVTLKVVERQLDAVIAEVKDWTNVVIAYEPVWAIGTGLAATAEDAQDIHHSIRSYLAEKLGKDTAEKTRILYGGSANGANAGTFKDKADVDGFLVGGASLKPEFVDIINSRN |  |  |  |  |  |  |  | 20.1 nM | 0.00191 s⁻¹ | 95100 M⁻¹ s⁻¹ | 168 nM | 0.0031 s⁻¹ | 18400 M⁻¹ s⁻¹ | 1000 nM | 100 nM
